Results taken from PMC4748815 (RNA, 2016).
Where two headings read alike, the source gives them in different places.

T1: His6-tagged mouse GYF2 (mouse, UniProt Q6Y7W8 1-1291)
T1 sequence (looked up): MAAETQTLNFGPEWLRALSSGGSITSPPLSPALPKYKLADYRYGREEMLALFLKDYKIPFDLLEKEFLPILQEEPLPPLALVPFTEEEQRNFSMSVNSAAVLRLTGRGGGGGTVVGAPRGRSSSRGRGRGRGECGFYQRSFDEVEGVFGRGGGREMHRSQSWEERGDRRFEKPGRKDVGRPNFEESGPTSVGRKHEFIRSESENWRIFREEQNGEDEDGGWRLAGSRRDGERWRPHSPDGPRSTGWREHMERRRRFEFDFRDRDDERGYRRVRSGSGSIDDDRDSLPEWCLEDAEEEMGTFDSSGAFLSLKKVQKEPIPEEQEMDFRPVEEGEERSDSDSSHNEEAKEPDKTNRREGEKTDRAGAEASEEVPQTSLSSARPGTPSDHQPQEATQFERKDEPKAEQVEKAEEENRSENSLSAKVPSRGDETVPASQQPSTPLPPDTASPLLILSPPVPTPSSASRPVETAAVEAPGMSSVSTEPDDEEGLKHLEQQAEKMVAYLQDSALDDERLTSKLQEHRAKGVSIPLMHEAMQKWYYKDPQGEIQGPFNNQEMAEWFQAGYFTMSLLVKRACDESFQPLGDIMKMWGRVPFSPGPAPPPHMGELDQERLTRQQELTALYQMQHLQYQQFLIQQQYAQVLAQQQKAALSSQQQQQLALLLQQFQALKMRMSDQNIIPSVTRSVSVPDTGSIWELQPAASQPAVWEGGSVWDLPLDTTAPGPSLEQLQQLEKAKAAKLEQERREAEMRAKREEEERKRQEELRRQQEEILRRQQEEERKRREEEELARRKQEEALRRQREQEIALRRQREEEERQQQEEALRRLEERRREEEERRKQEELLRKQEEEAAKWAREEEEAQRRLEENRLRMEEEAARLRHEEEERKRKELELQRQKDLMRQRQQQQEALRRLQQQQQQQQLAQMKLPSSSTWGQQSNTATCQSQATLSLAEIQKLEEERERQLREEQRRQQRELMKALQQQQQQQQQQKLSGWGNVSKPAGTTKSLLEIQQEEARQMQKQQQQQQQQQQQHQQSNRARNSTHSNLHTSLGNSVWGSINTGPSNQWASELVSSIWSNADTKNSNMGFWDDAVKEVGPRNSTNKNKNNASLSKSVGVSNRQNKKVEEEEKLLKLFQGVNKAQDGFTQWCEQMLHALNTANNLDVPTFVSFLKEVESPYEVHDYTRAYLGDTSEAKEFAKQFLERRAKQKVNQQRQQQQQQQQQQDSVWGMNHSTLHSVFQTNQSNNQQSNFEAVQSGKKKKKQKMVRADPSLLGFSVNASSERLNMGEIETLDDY

B1: His6-tagged mouse 4EHP (natural protein, UniProt Q8BMB3 1-245, looked up)
chain: MNNKFDALKDDDSGDHDQNEENSTQKDGEKEKTDRDKSQSSGKRKAVVPGPAEHPLQYNYTFWYSRRTPGRPTSSQSYEQNIKQIGTFASVEQFWKFYSHMVRPGDLTGHSDFHLFKEGIKPMWEDDANKNGGKWIIRLRKGLASRCWENLILAMLGEQFMVGEEICGAVVSVRFQEDIISIWNKTASDQATTARIRDTLRRVLNLPPNTIMEYKTHTDSIKMPGRLGPQRLLFQNLWKPRLNVP
B2: GST-tagged mouse TTP (natural protein, UniProt P22893 1-319, looked up)
chain: MDLSAIYESLQSMSHDLSSDHGGTESLGGLWNINSDSIPSGVTSRLTGRSTSLVEGRSCGWVPPPPGFAPLAPRPGPELSPSPTSPTATPTTSSRYKTELCRTYSESGRCRYGAKCQFAHGLGELRQANRHPKYKTELCHKFYLQGRCPYGSRCHFIHNPTEDLALPGQPHVLRQSISFSGLPSGRRSSPPPPGFSGPSLSSCSFSPSSSPPPPGDLPLSPSAFSAAPGTPVTRRDPNQACCPSCRRSTTPSTIWGPLGGLARSPSAHSLGSDPDDYASSGSSLGGSDSPVFEAGVFGPPQTPAPPRRLPIFNRISVSE

What was measured:
Test in all cases: pull-down
GST-tagged mouse TTP = biological target: B2
His6-tagged mouse GYF2 [1] = biological target: T1, His6-tagged mouse GYF2
His6-tagged mouse GYF2 [2] = biological target: T1, His6-tagged mouse GYF2; remark: listed apart in the source

binding result (GST-tagged mouse TTP) | binding result (His6-tagged mouse GYF2 [1]) | binding result (His6-tagged mouse GYF2 [2]) | Binder
binds | binds | – | B1
– | – | binds | B2
